Measurements published in patent publication US20040146507A1 (Genentech, published 2004).

T1: rhesus CD11a (rhesus, UniProt H9Z8N3 26-1169)
T1 construct: whole, on cells; On rhesus peripheral blood lymphocytes or leukocytes; also called rhCD11a
T1 sequence: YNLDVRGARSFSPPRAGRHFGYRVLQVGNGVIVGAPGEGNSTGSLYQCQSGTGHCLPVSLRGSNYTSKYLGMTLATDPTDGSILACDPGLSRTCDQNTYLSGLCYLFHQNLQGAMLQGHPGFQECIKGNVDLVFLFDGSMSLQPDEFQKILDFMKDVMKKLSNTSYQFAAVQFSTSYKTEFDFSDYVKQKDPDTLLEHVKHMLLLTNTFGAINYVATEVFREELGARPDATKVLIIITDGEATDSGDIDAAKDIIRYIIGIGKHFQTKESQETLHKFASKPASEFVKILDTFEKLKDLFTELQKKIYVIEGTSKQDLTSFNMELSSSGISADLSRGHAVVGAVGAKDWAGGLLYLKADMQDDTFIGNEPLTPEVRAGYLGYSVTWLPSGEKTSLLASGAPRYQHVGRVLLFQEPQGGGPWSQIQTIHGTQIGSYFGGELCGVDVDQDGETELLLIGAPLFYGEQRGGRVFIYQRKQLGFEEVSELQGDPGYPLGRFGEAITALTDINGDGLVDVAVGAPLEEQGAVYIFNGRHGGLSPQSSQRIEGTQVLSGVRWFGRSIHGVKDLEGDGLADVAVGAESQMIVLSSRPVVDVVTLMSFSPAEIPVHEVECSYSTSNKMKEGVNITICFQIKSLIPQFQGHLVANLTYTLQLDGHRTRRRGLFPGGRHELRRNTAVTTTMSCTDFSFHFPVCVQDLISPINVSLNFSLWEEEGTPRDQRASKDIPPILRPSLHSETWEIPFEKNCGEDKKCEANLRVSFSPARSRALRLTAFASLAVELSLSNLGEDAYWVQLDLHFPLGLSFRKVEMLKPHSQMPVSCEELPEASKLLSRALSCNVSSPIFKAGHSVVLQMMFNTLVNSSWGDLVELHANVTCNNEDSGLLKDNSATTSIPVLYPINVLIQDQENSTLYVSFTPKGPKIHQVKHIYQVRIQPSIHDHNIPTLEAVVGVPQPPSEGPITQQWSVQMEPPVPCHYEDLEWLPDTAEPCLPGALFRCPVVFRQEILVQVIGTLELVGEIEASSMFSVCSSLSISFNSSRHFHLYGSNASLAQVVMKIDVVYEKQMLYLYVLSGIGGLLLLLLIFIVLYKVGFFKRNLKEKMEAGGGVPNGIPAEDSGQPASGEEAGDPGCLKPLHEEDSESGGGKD


Key:
[1] = biological target: T2, human CD11a (human, UniProt P20701 26-1170); assay: FACScan, Jurkat cells
T2 construct: whole, on cells; On Jurkat T-cells or human peripheral blood mononuclear cells, as part of LFA-1; also called CD11a on Jurkat cells; alpha subunit of LFA-1
Procedure: (§1) Aliquots of 10⁶ Jurkat T-cells were incubated with serial dilutions of humanized and control antibodies in PBS-0.1% BSA-10 mM sodium azide for 45 min at 4° C. The cells were washed and then incubated in fluorescein-conjugated goat anti-human F(ab′)₂ (Organon Teknika, Westchester, Pa.) for 45 min at 4° C. Cells were washed and analysed on a FACScan (Becton Dickinson, Mountain View, Calif.). 8×10³ cells were acquired by list mode and gated by forward light scatter versus side light scatter, thereby excluding dead cells and debris.

[2] = biological target: T1, rhesus CD11a; assay: rhesus PBL binding
[3] = biological target: T1, rhesus CD11a; assay: rhesus PBL binding; remark: listed apart in the source
[4] = biological target: T2, human CD11a; assay: FACScan, Jurkat cells; remark: listed apart in the source
Procedure: as §1
Target sequence in this assay (P20701 26-1170): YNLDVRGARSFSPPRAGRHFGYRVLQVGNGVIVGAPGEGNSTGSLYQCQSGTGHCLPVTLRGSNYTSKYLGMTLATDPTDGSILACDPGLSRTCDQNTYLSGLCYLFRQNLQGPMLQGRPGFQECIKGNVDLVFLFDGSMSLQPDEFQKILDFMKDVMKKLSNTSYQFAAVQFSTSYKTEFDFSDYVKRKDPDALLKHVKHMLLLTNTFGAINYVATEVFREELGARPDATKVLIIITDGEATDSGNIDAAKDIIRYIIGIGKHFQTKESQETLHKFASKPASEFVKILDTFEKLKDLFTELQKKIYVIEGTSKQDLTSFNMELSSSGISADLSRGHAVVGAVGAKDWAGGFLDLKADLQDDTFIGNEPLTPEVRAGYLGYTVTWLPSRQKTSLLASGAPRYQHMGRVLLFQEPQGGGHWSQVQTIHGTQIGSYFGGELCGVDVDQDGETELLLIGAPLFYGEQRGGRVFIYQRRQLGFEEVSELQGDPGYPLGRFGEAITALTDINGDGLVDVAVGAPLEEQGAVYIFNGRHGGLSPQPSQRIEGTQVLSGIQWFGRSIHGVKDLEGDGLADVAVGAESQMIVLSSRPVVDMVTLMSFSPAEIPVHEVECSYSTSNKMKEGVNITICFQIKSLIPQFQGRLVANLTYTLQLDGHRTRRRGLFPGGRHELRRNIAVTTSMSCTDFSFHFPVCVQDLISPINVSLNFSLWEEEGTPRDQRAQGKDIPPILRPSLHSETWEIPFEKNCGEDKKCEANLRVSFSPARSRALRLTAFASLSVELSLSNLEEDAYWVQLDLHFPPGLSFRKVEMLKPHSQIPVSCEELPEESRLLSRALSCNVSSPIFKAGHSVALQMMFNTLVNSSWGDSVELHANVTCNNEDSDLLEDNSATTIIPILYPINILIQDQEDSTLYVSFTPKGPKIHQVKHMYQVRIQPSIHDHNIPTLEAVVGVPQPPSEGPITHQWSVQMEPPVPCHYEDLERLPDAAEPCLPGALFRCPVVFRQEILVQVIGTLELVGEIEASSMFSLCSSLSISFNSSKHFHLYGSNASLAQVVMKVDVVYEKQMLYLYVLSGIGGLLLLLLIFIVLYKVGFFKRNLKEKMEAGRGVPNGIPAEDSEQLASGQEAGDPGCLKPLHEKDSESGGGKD
To determine which CDR residues were involved in binding to human CD11a an alanine-scan (Cunningham et al., Science 244:1081 (1989)) was performed on the CDR residues of HuIgG1. Each mutant was tested for binding to CD11a on Jurkat cells. In the light chain only CDR-L3 contributes to binding.

Binder	EC50 F(ab)/EC50 F(ab)-2 [1]	Var.EC50/HuIgG1 EC50 [3]	Var.EC50/HuIgG1 EC50 [4]	also measured
HuIgG1 mutant AspH54Glu (antibody, V domains shown, HuIgG1 mutant, human IgG1; Kabat numbering; also called AspH54 change to Glu) VH: EVQLVESGGGLVQPGGSLRLSCAASGYSFTGHWMNWVRQAPGKGLEWVGMIHPSESETRYNQKFKDRFTISVDKSKNTLYLQMNSLRAEDTAVYYCARGIYFYGTTYFDYWGQGTLVTVSS VL: DIQMTQSPSSLSASVGDRVTITCRASKTISKYLAWYQQKPGKAPKLLIYSGSTLQSGVPSRFSGSGSGTDFTLTISSLQPEDFATYYCQQHNEYPLTFGQGTKVEIK				Mutant EC50/HuIgG1 EC50 [1]: 16 ratio
humanized MHM24 F(ab)-8 (Fab, V domains shown, F(ab) from E. coli with human kappa CL and CH1) VH: EVQLVESGGGLVQPGGSLRLSCAASGYSFTGHWMNWVRQAPGKGLEWVGMIHPSDSETRYNQKFKDRFTISVDKSKNTLYLQMNSLRAEDTAVYYCARGIYFYGTTYFDYWGQGTLVTVSS VL: DIQMTQSPSSLSASVGDRVTITCRASKTISKYLAWYQQKPGKAPKLLIYSGSTLQSGVPSRFSGSGSGTDFTLTISSLQPEDFATYYCQQHNEYPLTFGQGTKVEIKR	0.004 ratio			
humanized MHM24 F(ab)-4 (Fab, V domains shown, F(ab) from E. coli; F(ab)-2 plus ValH71Arg) VH: EVQLVESGGGLVQPGGSLRLSCAASGFSFTGHWMNWVRQAPGKGLEWVGMIHPSDSETRYNQKFKDRFTISRDNSKNTLYLQMNSLRAEDTAVYYCARGIYFYGTTYFDYWGQGTLVTVSS VL: DIQMTQSPSSLSASVGDRVTITCRASKTISKYLAWYQQKPGKAPKLLIYSGSSLESGVPSRFSGSGSGTDFTLTISSLQPEDFATYYCQQHNEYPLTFGQGTKVEIK	2.9 ratio			
HuIgG1 mutant GluH56Ala (antibody, V domains shown, HuIgG1 mutant, human IgG1; Kabat numbering) VH: EVQLVESGGGLVQPGGSLRLSCAASGYSFTGHWMNWVRQAPGKGLEWVGMIHPSDSATRYNQKFKDRFTISVDKSKNTLYLQMNSLRAEDTAVYYCARGIYFYGTTYFDYWGQGTLVTVSS VL: DIQMTQSPSSLSASVGDRVTITCRASKTISKYLAWYQQKPGKAPKLLIYSGSTLQSGVPSRFSGSGSGTDFTLTISSLQPEDFATYYCQQHNEYPLTFGQGTKVEIK		0.3 ratio	4 ratio	fold improvement in binding over HuIgG1 [2]: 3 fold
HuIgG1 mutant ThrH30Ala (antibody, V domains shown, HuIgG1 mutant, human IgG1; Kabat numbering) VH: EVQLVESGGGLVQPGGSLRLSCAASGYSFAGHWMNWVRQAPGKGLEWVGMIHPSDSETRYNQKFKDRFTISVDKSKNTLYLQMNSLRAEDTAVYYCARGIYFYGTTYFDYWGQGTLVTVSS VL: DIQMTQSPSSLSASVGDRVTITCRASKTISKYLAWYQQKPGKAPKLLIYSGSTLQSGVPSRFSGSGSGTDFTLTISSLQPEDFATYYCQQHNEYPLTFGQGTKVEIK		1.3 ratio	1.7 ratio	
HuIgG1 mutant SerH53Ala (antibody, V domains shown, HuIgG1 mutant, human IgG1; Kabat numbering) VH: EVQLVESGGGLVQPGGSLRLSCAASGYSFTGHWMNWVRQAPGKGLEWVGMIHPADSETRYNQKFKDRFTISVDKSKNTLYLQMNSLRAEDTAVYYCARGIYFYGTTYFDYWGQGTLVTVSS VL: DIQMTQSPSSLSASVGDRVTITCRASKTISKYLAWYQQKPGKAPKLLIYSGSTLQSGVPSRFSGSGSGTDFTLTISSLQPEDFATYYCQQHNEYPLTFGQGTKVEIK		0.7 ratio	1.8 ratio	
humanized MHM24 F(ab)-6 (Fab, V domains shown, F(ab) from E. coli) VH: EVQLVESGGGLVQPGGSLRLSCAASGFSFTGHWMNWVRQAPGKGLEWVGMIHPSDSETRYNQKFKDRFTISVDKSSSTLYLQMNSLRAEDTAVYYCARGIYFYGTTYFDYWGQGTLVTVSS VL: DIQMTQSPSSLSASVGDRVTITCRASKTISKYLAWYQQKPGKAPKLLIYSGSTLQSGVPSRFSGSGSGTDFTLTISSLQPEDFATYYCQQHNEYPLTFGQGTKVEIK	0.012 ratio			fold improvement in binding over F(ab)-5 [1]: 4 fold
humanized MHM24 F(ab)-3 (Fab, V domains shown, F(ab) from E. coli; F(ab)-2 plus PheH67Ala) VH: EVQLVESGGGLVQPGGSLRLSCAASGFSFTGHWMNWVRQAPGKGLEWVGMIHPSDSETRYNQKFKDRATISVDNSKNTLYLQMNSLRAEDTAVYYCARGIYFYGTTYFDYWGQGTLVTVSS VL: DIQMTQSPSSLSASVGDRVTITCRASKTISKYLAWYQQKPGKAPKLLIYSGSSLESGVPSRFSGSGSGTDFTLTISSLQPEDFATYYCQQHNEYPLTFGQGTKVEIK	1.2 ratio			
humanized MHM24 F(ab)-7 (Fab, V domains shown, F(ab) from E. coli) VH: EVQLVESGGGLVQPGGSLRLSCAASGYSFTGHWMNWVRQAPGKGLEWVGMIHPSDSETRYNQKFKDRFTISVDKSSSTLYLQMNSLRAEDTAVYYCARGIYFYGTTYFDYWGQGTLVTVSS VL: DIQMTQSPSSLSASVGDRVTITCRASKTISKYLAWYQQKPGKAPKLLIYSGSTLQSGVPSRFSGSGSGTDFTLTISSLQPEDFATYYCQQHNEYPLTFGQGTKVEIK	0.004 ratio			fold improvement in binding over F(ab)-6 [1]: 3 fold
humanized MHM24 F(ab)-2 (Fab, V domains shown, F(ab) from E. coli) VH: EVQLVESGGGLVQPGGSLRLSCAASGFSFTGHWMNWVRQAPGKGLEWVGMIHPSDSETRYNQKFKDRFTISVDNSKNTLYLQMNSLRAEDTAVYYCARGIYFYGTTYFDYWGQGTLVTVSS VL: DIQMTQSPSSLSASVGDRVTITCRASKTISKYLAWYQQKPGKAPKLLIYSGSSLESGVPSRFSGSGSGTDFTLTISSLQPEDFATYYCQQHNEYPLTFGQGTKVEIK	1 ratio			EC50 [1]: 0.771 µg/mL; fold weaker EC50 than chimeric IgG1 [1]: 148 fold
humanized MHM24 F(ab)-5 (Fab, V domains shown, F(ab) from E. coli) VH: EVQLVESGGGLVQPGGSLRLSCAASGFSFTGHWMNWVRQAPGKGLEWVGMIHPSDSETRYNQKFKDRFTISVDKSSSTLYLQMNSLRAEDTAVYYCARGIYFYGTTYFDYWGQGTLVTVSS VL: DIQMTQSPSSLSASVGDRVTITCRASKTISKYLAWYQQKPGKAPKLLIYSGSSLESGVPSRFSGSGSGTDFTLTISSLQPEDFATYYCQQHNEYPLTFGQGTKVEIK	0.043 ratio			fold improvement in binding over F(ab)-2 [1]: 23 fold
HuIgG1 mutant SerH55Gln (antibody, V domains shown, HuIgG1 mutant, human IgG1; Kabat numbering) VH: EVQLVESGGGLVQPGGSLRLSCAASGYSFTGHWMNWVRQAPGKGLEWVGMIHPSDQETRYNQKFKDRFTISVDKSKNTLYLQMNSLRAEDTAVYYCARGIYFYGTTYFDYWGQGTLVTVSS VL: DIQMTQSPSSLSASVGDRVTITCRASKTISKYLAWYQQKPGKAPKLLIYSGSTLQSGVPSRFSGSGSGTDFTLTISSLQPEDFATYYCQQHNEYPLTFGQGTKVEIK		6.7 ratio	2.9 ratio	
HuIgG1 mutant LysH73Arg (antibody, V domains shown, HuIgG1 mutant, human IgG1; Kabat numbering) VH: EVQLVESGGGLVQPGGSLRLSCAASGYSFTGHWMNWVRQAPGKGLEWVGMIHPSDSETRYNQKFKDRFTISVDRSKNTLYLQMNSLRAEDTAVYYCARGIYFYGTTYFDYWGQGTLVTVSS VL: DIQMTQSPSSLSASVGDRVTITCRASKTISKYLAWYQQKPGKAPKLLIYSGSTLQSGVPSRFSGSGSGTDFTLTISSLQPEDFATYYCQQHNEYPLTFGQGTKVEIK		5.5 ratio	4.6 ratio	
HuIgG1 mutant SerH55Ala (antibody, V domains shown, HuIgG1 mutant, human IgG1; Kabat numbering) VH: EVQLVESGGGLVQPGGSLRLSCAASGYSFTGHWMNWVRQAPGKGLEWVGMIHPSDAETRYNQKFKDRFTISVDKSKNTLYLQMNSLRAEDTAVYYCARGIYFYGTTYFDYWGQGTLVTVSS VL: DIQMTQSPSSLSASVGDRVTITCRASKTISKYLAWYQQKPGKAPKLLIYSGSTLQSGVPSRFSGSGSGTDFTLTISSLQPEDFATYYCQQHNEYPLTFGQGTKVEIK		1.3 ratio	1.3 ratio	
